Experimental data reported in paper PMC3184163, “The Amino-Terminus of Nitric Oxide Sensitive Guanylyl Cyclase α1 Does Not Affect Dimerization but Influences Subcellular Localization” (PLoS ONE, 2011).

T1: nitric oxide sensitive guanylyl cyclase β1-subunit with carboxy-terminal Strep Tag II (UniProt P20595 1-619)
T1 construct: β1-subunit of nitric oxide sensitive guanylyl cyclase; PvuI/StuI fragment of the conjoined construct β1α1-Strep [27] in pFastBac1; predicted 72.2 kDa with tag; also called Strep tagged β1-subunit; source: Sf-9, recombinant baculovirus, cytosolic fraction; purified on Strep-Tactin Superflow; not shown: Strep Tag II, C-terminal, kept
T1 sequence (looked up): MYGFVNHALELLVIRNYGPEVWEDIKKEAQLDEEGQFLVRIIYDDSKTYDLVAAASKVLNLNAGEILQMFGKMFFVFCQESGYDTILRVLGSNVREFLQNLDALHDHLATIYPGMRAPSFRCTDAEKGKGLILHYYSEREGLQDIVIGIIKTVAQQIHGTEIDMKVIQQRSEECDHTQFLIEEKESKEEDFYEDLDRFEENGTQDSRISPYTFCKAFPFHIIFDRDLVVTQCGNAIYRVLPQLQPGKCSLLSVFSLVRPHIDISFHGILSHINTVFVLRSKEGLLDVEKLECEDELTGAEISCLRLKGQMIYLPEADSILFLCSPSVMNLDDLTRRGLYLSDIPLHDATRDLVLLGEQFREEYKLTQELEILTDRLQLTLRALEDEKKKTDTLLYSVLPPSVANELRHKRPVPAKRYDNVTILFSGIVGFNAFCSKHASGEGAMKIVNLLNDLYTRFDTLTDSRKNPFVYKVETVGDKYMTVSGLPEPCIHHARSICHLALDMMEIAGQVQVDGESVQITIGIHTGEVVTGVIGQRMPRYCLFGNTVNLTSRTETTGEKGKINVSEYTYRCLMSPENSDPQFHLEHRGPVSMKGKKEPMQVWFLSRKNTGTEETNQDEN

T2: nitric oxide sensitive guanylyl cyclase β1-subunit with carboxy-terminal Strep Tag II, P20595
T2 chain: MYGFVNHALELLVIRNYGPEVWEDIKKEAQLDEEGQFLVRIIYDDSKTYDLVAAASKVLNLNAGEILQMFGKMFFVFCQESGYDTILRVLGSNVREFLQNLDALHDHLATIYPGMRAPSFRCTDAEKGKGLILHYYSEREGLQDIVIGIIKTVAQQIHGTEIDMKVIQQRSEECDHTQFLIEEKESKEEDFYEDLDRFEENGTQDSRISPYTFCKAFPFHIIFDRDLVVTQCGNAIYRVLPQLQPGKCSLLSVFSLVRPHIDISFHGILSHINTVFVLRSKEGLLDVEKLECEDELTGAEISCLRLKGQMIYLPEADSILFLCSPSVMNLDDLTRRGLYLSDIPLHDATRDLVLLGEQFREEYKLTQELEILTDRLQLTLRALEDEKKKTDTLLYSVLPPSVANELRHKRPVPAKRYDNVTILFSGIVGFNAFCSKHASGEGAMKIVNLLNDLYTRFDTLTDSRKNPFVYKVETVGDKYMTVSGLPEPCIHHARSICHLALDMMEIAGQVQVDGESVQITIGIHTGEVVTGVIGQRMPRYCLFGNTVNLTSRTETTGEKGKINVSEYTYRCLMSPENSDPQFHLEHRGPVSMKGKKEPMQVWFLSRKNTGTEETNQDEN


Assays:
[1] = target: T1, nitric oxide sensitive guanylyl cyclase …; assay: pull-down; co-purification: α1 variant expressed with carboxy-terminally Strep Tag II tagged β1 in Sf-9; cytosolic fraction applied to Strep-Tactin Superflow resin; buffer W 100 mM Tris-HCl, 1 M NaCl, 1 mM EDTA, 1 mM benzamidine, 10 mM DTT, pH 8.0; eluted with 2.5 mM D-desthiobiotin; on ice or at 4°C; SDS-PAGE, Coomassie staining, densitometry; cells also cultured without supplement, with hemin (4 mg/l), or with …; details: partners not purified
[2] = target: T2, nitric oxide sensitive guanylyl cyclase …; assay: pull-down; co-purification: α1 variant expressed with carboxy-terminally Strep Tag II tagged β1 in Sf-9; cytosolic fraction applied to Strep-Tactin Superflow resin; buffer W 100 mM Tris-HCl, 1 M NaCl, 1 mM EDTA, 1 mM benzamidine, 10 mM DTT, pH 8.0; eluted with 2.5 mM D-desthiobiotin; on ice or at …

Row | Binder | ratio of band intensities of the α1 variant to β1 [1] | relative heterodimerization by densitometry (% of α1WT) [2]
1 | C-α1 splice variant of the nitric oxide sensitive guanylyl cyclase α1-subunit (human α1ΔN259) (domain or fragment, UniProt Q02108-1 259-690, looked up, α1-subunit of nitric oxide sensitive guanylyl cyclase, human, amino-terminal deletion α1ΔN259; predicted 48 kDa; The name ΔN259 could also be read as loss of the first 259 residues; also called C-α1-splice form; source: Sf-9, recombinant baculovirus, cytosolic fraction; co-purified with β1-S on Strep-Tactin) MKSTKPSLSPSKPQSSLVIPTSLFCKTFPFHFMFDKDMTILQFGNGIRRLMNRRDFQGKPNFEEYFEILTPKINQTFSGIMTMLNMQFVVRVRRWDNSVKKSSRVMDLKGQMIYIVESSAILFLGSPCVDRLEDFTGRGLYLSDIPIHNALRDVVLIGEQARAQDGLKKRLGKLKATLEQAHQALEEEKKKTVDLLCSIFPCEVAQQLWQGQVVQAKKFSNVTMLFSDIVGFTAICSQCSPLQVITMLNALYTRFDQQCGELDVYKVETIGDAYCVAGGLHKESDTHAVQIALMALKMMELSDEVMSPHGEPIKMRIGLHSGSVFAGVVGVKMPRYCLFGNNVTLANKFESCSVPRKINVSPTTYRLLKDCPGFVFTPRSREELPPNFPSEIPGICHFLDAYQQGTNSKPCFQKKDVEDGNANFLGKASGID | 0.75 | 166.2 % (±12.2 %)
2 | nitric oxide sensitive guanylyl cyclase α1-subunit, wild type (human) (natural protein, UniProt Q02108-1 1-690, looked up, predicted 77.6 kDa; also called α1WT; α1 full-length; source: Sf-9, recombinant baculovirus, cytosolic fraction; co-purified with β1-S on Strep-Tactin) MFCTKLKDLKITGECPFSLLAPGQVPNESSEEAAGSSESCKATVPICQDIPEKNIQESLPQRKTSRSRVYLHTLAESICKLIFPEFERLNVALQRTLAKHKIKESRKSLEREDFEKTIAEQAVAAGVPVEVIKESLGEEVFKICYEEDENILGVVGGTLKDFLNSFSTLLKQSSHCQEAGKRGRLEDASILCLDKEDDFLHVYYFFPKRTTSLILPGIIKAAAHVLYETEVEVSLMPPCFHNDCSEFVNQPYLLYSVHMKSTKPSLSPSKPQSSLVIPTSLFCKTFPFHFMFDKDMTILQFGNGIRRLMNRRDFQGKPNFEEYFEILTPKINQTFSGIMTMLNMQFVVRVRRWDNSVKKSSRVMDLKGQMIYIVESSAILFLGSPCVDRLEDFTGRGLYLSDIPIHNALRDVVLIGEQARAQDGLKKRLGKLKATLEQAHQALEEEKKKTVDLLCSIFPCEVAQQLWQGQVVQAKKFSNVTMLFSDIVGFTAICSQCSPLQVITMLNALYTRFDQQCGELDVYKVETIGDAYCVAGGLHKESDTHAVQIALMALKMMELSDEVMSPHGEPIKMRIGLHSGSVFAGVVGVKMPRYCLFGNNVTLANKFESCSVPRKINVSPTTYRLLKDCPGFVFTPRSREELPPNFPSEIPGICHFLDAYQQGTNSKPCFQKKDVEDGNANFLGKASGID | 0.43 | –
